Test results taken from patent publication CN112794907A (ANHUI ANKE BIOTECHNOLOGY GROUP CO LTD, dated 2021).

How the values were obtained:
[1] = target: T1, rhOX40-Avi-His-bio (human, UniProt P43489 29-214, biotin joined covalently to the Avi tag by BirA); experiment: SPR
T1 construct: range 29-214; Biotinylated form of rhOX40-Avi-His, captured on the SA chip for SPR; also called 生物素标记的抗原rhOX40-Avi-His-bio; huOX40; not shown: Avi tag and His tag from the vector pCD-Avi-His
T1 sequence (looked up): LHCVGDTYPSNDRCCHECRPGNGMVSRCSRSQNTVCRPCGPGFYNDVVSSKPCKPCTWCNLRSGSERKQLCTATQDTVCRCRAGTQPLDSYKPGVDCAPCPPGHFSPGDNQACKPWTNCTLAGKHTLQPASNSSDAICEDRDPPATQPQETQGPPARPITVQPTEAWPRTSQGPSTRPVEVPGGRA

[2] = target: T1, rhOX40-Avi-His-bio; experiment: SPR, Biacore T200, rhOX40-Avi-His-bio on SA chip, antibody as analyte

B1: 全人源抗huOX40单克隆抗体A2-1 (antibody, IgG1, V domains shown)
VH: DVQLQESGPGLVKPSETLSLTCTVSGDSVSDSGAYWVWIRQPPGKGLEWIGTIAPARGDTLYNPSLKSRVTISVDTSKNQFSLKLSSVTAADTSVYYCARDVWYIDYWGQGTLVTVSS
VL: DIVLTQSPATLSLSPGERATLSCRASEDIGTWLAWYQQKPGQAPRLLIYHTDLRATGVPTRFSGSGSGTDFTLTISSLEPEDFAVYYCQQYASYPLTFGQGTKLEIK
- fold increase of affinity over A2 [1]: ~540 倍
- Kd [2]: ~200 pM

B2: 全人源抗huOX40单克隆抗体B11-11 (antibody, IgG1, V domains shown)
VH: DVQLQESGPGLVKPSETLSLTCTVSGGSISADGFIWGWIRQPPGKGLEWIGGITTNGGYTDYNPSLKSRVTISVDTSKNQFSLKLSSVTAADTSVYYCARWFWDVSYGFDTWGQGTLVTVSS
VL: DIVMTQSPLSLPVTPGEPASISCRSSQSVDSDEYSFMHWYLQKPGQAPQLLIYRTDQRASGVPTRFSGSGSGTDFTLKISRVEAEDVGVYYCQQTPTYTFGQGTKLEIKR
- fold increase of affinity over B11 [1]: ~650 倍
- Kd [2]: ~776 pM
